Here are results for 17 sequences from the DeepSol protein solubility set.

The data set can be described thus: soluble on expression in E. coli; label from the status in PepcDB or PDB records.
“MSLDVSLKLKGIDGALEDNVKAYLSSIPEKDYSTSLRFQARLDQSITEALNALGYYHAKISYSISEGNDELIVNIHKGLPVKIKVMDVVISGEAKEDEEFTNLIAKSPLKVGRILNQGEYDSLKSGIRNLALQRGYFNGDFKLNKLEVIPELNEANVRLHYDSGIRYHFGPVEITGSQIWENRVESMRPFEIGEPYLVSDVGEYNQNLSNTDWFSSVFVEPDLSKLEDGRELPIKVSLAPAAKNQIETGIGYSTDTGVRGTLKWKKPWVSARGHSFNTALSLSKPEQTITAGYKIPLDDVLREYYQLQFGLKHLDNRDTESLESNLAVERHWLTDGGWHKTVYVRHLYENFSQGLQDDGVQFVLPGATFSRTRVRGGSMPMWGDKQSVTVEYGDPALLSETRVLRLLGRSSWIRGIGENHRGLFRLEGGANITEEFEKLSPSLRFFAGGDNNIRGYGYESISPVDESGALTGAKYILSSTLEYQYRVYGNWWAATFYDIGDAFNDTPEWKSGAGVGIRWASPVGPVSFDFAWGLDEKPNNEFRIHFSLGPELEGHHHHHH”: the “soluble on expression in E. coli” value is “not soluble”. As to “MGGSHHHHHHGMASAVNVYSTSVTSDNLSRHDMLAWINESLQLNLTKIEQLCSGAAYCQFMDMLFPGSIALKKVKFQAKLEHEYIQNFKILQAGFKRMGVDKIIPVDKLVKGKFQDNFEFVQWFKKFFDANYDGKDYDPVAARQGQETAVAPSLVAPALNKPKKPLTSSSAAPQRPISTQRTAAAPKAGPGVVRKNPGVGNGDDEAAELMQQVNVLKLTVEDLEKERDFYFGKLRNIELICQENEGENDPVLQRIVDILYATDEGFVIPDEGGPQEEQEEY”, the “soluble on expression in E. coli” value is “not soluble”. As for “MSLASGNTLTYGLVVPDISNPFFASMARALQREAFNHGRVLLLGDAGDDRQHEHDLINHLLRRQVDGLLYTSVDRHPWFDLIRNSGTPCVMIDTIDSHAGISAIRVNERDAACQATRHLLQHGYRELGIFVGPLTMLNAQDRLNGWRDALIEAGITPREEWIFEAPYTRKGGYQASQKMLQGPCPRAIFTSNEQQALGCLSALAEHQLRVPDDLAIICFNGTQQSEFSVPPLSAVEQPIDAMARQAIAMLATGTAQPELHEFAFQLHIRRSEGHHHHHH”, the “soluble on expression in E. coli” value is reported as “soluble”. For the sequence “MDPRQFEHTVVADNDIHSIVMSYLLHNCFNETADSLASSTGVKQPAIDRDNMERRKQIIHFILERKALKAFELTEQLAQDLLEKNKDLQFDLLCLHFVELICAGNCTEALKFGKTRLAPFGKVKKYVEKLEDVMALLAYEDPEKSPMFHLLSSEYRQQVADNLNRTILEHTNHPSYTPMERIIQQVTVVRQYLTEENGKDAFPPFSLKDSLKG”, the “soluble on expression in E. coli” value is “soluble”. Take “MGSDKIHHHHHHMLNETKELLKDYYGIDDDTFKLSQEIMEEIKDKFEEIKEIREYNQYKVLKAMQESKLSDMHFNWTTGYGYNDIGREKIEEIYSKVFNTEDALVRPIIVNGTHALTLCIQGIVRPGDEILSVTGRPYDTLEGVIGIREEKGSLKEYGVTYDDVDFLEDGNLDLEGIKSKINDRTKLVMIQRSKGYSWRKSLSISDIKEAIEVIKSVKPEAIVMVDNCYGEFLDTKEPTDVGADVMAGSLIKNPGGGLALTGGYIAGRKDLIELISYRMTSPGIGKECGLTFGTTRNVLQGFFLAPYIVSQAVMGAIFCSRAFEKLGYDVLPKYDDLRSDIIQCIRLNNADEVISFCEGIQEAAPVDSYVKPVPWDMPGYESEVIMAAGAFIQGSSIELSADAPIRPPYNVYFQGGLTFDHSKMGTLKAIEFIKKLKK”: the “soluble on expression in E. coli” value is reported as “not soluble”. As for “FNKDGKFKIVQFTDVHFKYGNPASDVALERIGEVLDAEHPDLVIFTGDVVYSSPADKGMLQVLGQVERRHLPFVVTFGNHDNEQGKTRAELYDLIRGVAGNLLPDRGASPSPDYILTMKSSADASKDAALLYCMDSHSYSSLKDVDGYAWLTFGQVSWYRAQSAAYTARNGGKPYPALAFFHIPLPEYNEAAANENAILRGTRMEKACAPQLNTGMFAAMKEAGDVMGVFVGHDHDNDYAVMWKNILLAYGRFTGGNTEYNHLPNGARVIVLNEGTRTFETWIRQKGGVVDSTSYPSDYVKDDWRKR”, the “soluble on expression in E. coli” value is on record as “not soluble”. Consider “MRSGQMEIIIGWLYPQLMSTYGDRGNVIIIERRAQWREYNVTVLPLDQNSTPDDLKSVDVIVGGGAQDRQQEIVMRDLQGAKADAMREKIENGTPGVFTCGSPQLLGHYYEPGFGQRIEGLGILDLVSIHPGENTKRCIGNLVIEVTASRFAQELEAMTGTKPYLVGFENHGGRTKLGKVEALGRVVYGLGNNGEDGTEGAFYQNAIATYSHGPLLPKNPFVADWLIQTALRLKYQEEIQLSPLNDTLAMQGREAMFKRLKVNLPLAGRI”, for which the “soluble on expression in E. coli” value is listed as “not soluble”.

Take “MSLSILNSNAALRGLLDQHLADLSREEGLAPETIRDAIERGTMVLLGNPSHPSLRPILVGQPARVKVNANIGTSPMRNHPECEMQKVDAAVEAGADTIMDLSIAGDLDAIRREMLARCPLPLGTVPLYSVAQKYIECGKDPALIDPEEIFAEIEKQAQQGVDFMTVHCGLTRRGAEWAAKGDRLLGIVSRGGSILARWMLRHDRENPLLTGYDRILDIARKYNVTLSLGDGLRPGAGADAGDAAQWEEVMVLGQLAKRGLEAGVQCMIEGPGHVPMNEVEAQIVGIKKLTHGAPLYVLGPLVIDSCPGYDHIAGAIGGALAVRSGVDFLCYLTPAEHLTLPTREDVRAGVIASRIAAQAGEVALGRPHALARELGMGKARKALDWPGMERHALDAAMVDERRGEHRNEEECAMCGKFCAVKMLRDDPQGAFEGHHHHHH”: the “soluble on expression in E. coli” value is on record as “soluble”. Regarding “MNTYAQESKLRLKTKIGADGRCVIEDNFFTPPFKLMAPFYPKDDLAEIMLLAVSPGMMRGDAQDVQLNIGPNCKLRITSQSFEKIHNTEDGFASRDMHIVVGENAFLDFAPFPLIPFENAHFKGNTTISLRSSSQLLYSEIIVAGRVARNELFKFNRLHTKISILQDEKPIYYDNTILDPKTTDLNNMCMFDGYTHYLNLVLVNCPIELSGVRECIEESEGVDGAVSETASSHLCVKALAKGSEPLLHLREKIARLVTQTTTQKVLEHHHHHH”, the “soluble on expression in E. coli” value is listed as “soluble”.

For “MSLSNSLLPPNASGLERDIEQVIVQSTDLPIRIKDLWNPYSCHLSLLPWLAWALSVDEWDDRWPEHIKRQVVQDSFDVHRFKGTPYAVQKALDSLNIKTHLREWWEPDGSQEPGTMTVVALINENLTDDDNGLITEAMLEQVTRVIHTAKRGVIHFDVELGISLDETLGFSGAIGPSIAEIDFSSDFLPIVPEKGSADMAFSAALYGIGSADFLADMSGVVPDEGHHHHHH”, the “soluble on expression in E. coli” value is recorded as “not soluble”. For “MSVSNTQFNPFGNHETNLKELKLQLEQVTSKSVKQIEDVKGLTVTLERLTEIAKNIPETAIQSLISEIVASFPKCVSVLGEKKPEDLRTASFISLLRRLNQFIQTIADRVTKPFDSDVLKEWAPIFVSLLTGKHSALKENGALLWKKTFGTVKNNLICPEDLRGILDSMPKRYAISVPQSTSSKTDGYFSDDEAMDGLPTSSAAGAGNNFKFPKIKTEVIESQSSFQFSQQPVADEVAEKLLKEQKLKAEETQSPKTSSTETSRRRTSRMALIDEDSCDFVAILTSPATRKNRLTDRQKEKLEEVSGPRTTINYMDEESQNGFVKTEQFKKALTAMNFEVEDESVSAPTSKNSENPEILPIDEIPTVHVESAKSDKTPEPVKKTNKRRRLFHDQPVSAFATESSRKPEIANNDLGEILEKLPEHASTKSPEQKRGRKDSAISCETSDDISDSMKSNDSRTIITQQEHAVEQKSRKKPGRPKNSRNRSETTRKSGRLSAIQNNACVTSESSMSNETGDVEKTDDKKESVQNIPEQEAAEKKEVDTTISDKRLSDTEEAIEENIVKSPPKTPRTPSILRVGKRMSTSSSPMTERKRNRVHFGEESLPVDVVSSPLTPRRRPLAEAAKNPFVEATVAASNSNLSDIQSSTNDSSFYPTLADCRDKIDRILPNLVTLCMKTVLDSAKRSLSAVGVKTVGDFASLSKSDIEKFTWIKGRVVGARNVLMQYEKTRNAERREEIVDGSEEKPMDVADAIPPEIEAVSPSSKDSQSVPMETKDNSPPANEVIAQELPKASPISNTPSVESTQPALNVQKTPEASQSPASPISSNTGSSTFTVDPTPVQKDLSVVLSRKNLAPIFCGGLKNFKKEQLCPQKQCEKAKDAEKSFVEDGRVLHRICVSLSNAHTQNHWPSENSSKLLSNINKASILFKNLVQTRGAGDWDDTDLENDDLSTAESDVATDVDVLVAVYKRFSRHHTSPMANNLPWRSVMECVNEAACLLESIFLTRAPNKGSM”, the “soluble on expression in E. coli” value is on record as “not soluble”. For the sequence “MSRRRHSDENDGGQPHKRRKTSDANETEDHLESLICKVGEKSACSLESNLEGLAGVLEADLPNYKSKILRLLCTVARLLPEKLTIYTTLVGLLNARNYNFGGEFVEAMIRQLKESLKANNYNEAVYLVRFLSDLVNCHVIAAPSMVAMFENFVSVTQEEDVPQVRRDWYVYAFLSSLPWVGKELYEKKDAEMDRIFANTESYLKRRQKTHVPMLQVWTADKPHPQEEYLDCLWAQIQKLKKDRWQERHILRPYLAFDSILCEALQHNLPPFTPPPHTEDSVYPMPRVIFRMFDYTDDPEGPVMPGSHSVERFVIEENLHCIIKSHWKERKTCAAQLVSYPGKNKIPLNYHIVEVIFAELFQLPAPPHIDVMYTTLLIELCKLQPGSLPQVLAQATEMLYMRLDTMNTTCVDRFINWFSHHLSNFQFRWSWEDWSDCLSQDPESPKPKFVREVLEKCMRLSYHQRILDIVPPTFSALCPANPTCIYKYGDESSNSLPGHSVALCLAVAFKSKATNDEIFSILKDVPNPNQDDDDDEGFSFNPLKIEVFVQTLLHLAAKSFSHSFSALAKFHEVFKTLAESDEGKLHVLRVMFEVWRNHPQMIAVLVDKMIRTQIVDCAAVANWIFSSELSRDFTRLFVWEILHSTIRKMNKHVLKIQKELEEAKEKLARQHKRRSDDDDRSSDRKDGVLEEQIERLQEKVESAQSEQKNLFLVIFQRFIMILTEHLVRCETDGTSVLTPWYKNCIERLQQIFLQHHQIIQQYMVTLENLLFTAELDPHILAVFQQFCALQA”, the “soluble on expression in E. coli” value is given as “soluble”. Then “MIILEKEQKEPNRLIKEKSPYLLQHAYNPVDWYPWGEEAFEKARKENKPVFLSIGYSTCHWCHMMAHESFEDEEVAGLMNEAFVSIKVDREERPDIDNIYMTVCQIILGRGGWPLNIIMTPGKKPFFAGTYIPKNTRFNQIGMLELVPRIKEIWEQQHEEVLDSAEKI”, with “not soluble”; and “MSNLYTELKNEWSKHAPNLTHCSRLLDGFKLELVRSNFGTIQTASSSKQKDQLIKSREMLEIAVEHSITIKDYAAFERYMAQLNTYYYDYDKYLESSKHMYKFMGLNLLYMLATNRLADFHIELERLPTALLLHDSFIQPVLALENYYMEGRYNKILQAKKSMPSEIYSNFMDILVNTAREEIASCMEKSYLKMAPKLAAQRLGLRPGSKELFELATKRQWCLDEEGNYDYAGLHTRPMEKVPAKDIATHNLTYAQELEKIVLEHHHHHH”, with “not soluble”.

Consider “MEGMKGAVLITGASRGIGEATARLLHAKGYRVGLMARDEKRLQALAAELEGALPLPGDVREEGDWARAVAAMEEAFGELSALVNNAGVGVMKPVHELTLEEWRLVLDTNLTGAFLGIRHAVPALLRRGGGTIVNVGSLAGKNPFKGGAAYNASKFGLLGLAGAAMLDLREANVRVVNVLPGSVDTGFAGNTPGQAWKLKPEDVAQAVLFALEMPGHAMVSEIELRPTRPTSGPR”, for which the “soluble on expression in E. coli” value is “soluble”. “MAASRALSLTAEAVRAVIPRRSGRLLTRWETTSSIPEAGEGQIRLTDSCVQVGGRTRGGGAQEGSRRLPSHPSRYLRLLGILDPLS”: the “soluble on expression in E. coli” value is recorded as “not soluble”.

In the case of “MSLNTVIADFTERAGTGRVLKAEPEAIQLAPEQTALIVVDMQNAYTSIGGYLDLAGFDVSKTKPVVENIQKAVTAAHAAGIQVIYFKNGWDNQYVEAGGAGSPNFHKSNALKTMRKQPELQGKLLAKGGWDFELIDELQPKSQDIVIEKPRYSGFFNTALDSMLRARGIRNLVFVGIATNVCVESTLRDGFFLEYFGVALDDACYQAGPVEMHRASMYNIKTFFGWVSDTEGHHHHHH”, the “soluble on expression in E. coli” value is listed as “not soluble”.
